Measured values from CN111484562A.

Molecular target: 人CD22(hCD22)蛋白 (human) (UniProt P20273)
Assay: phage ELISA, 0.5 ug/ml hCD22 coated, phage supernatant, anti-M13-HRP

UniProt P20273, sequence (P20273 20-687 limits assumed): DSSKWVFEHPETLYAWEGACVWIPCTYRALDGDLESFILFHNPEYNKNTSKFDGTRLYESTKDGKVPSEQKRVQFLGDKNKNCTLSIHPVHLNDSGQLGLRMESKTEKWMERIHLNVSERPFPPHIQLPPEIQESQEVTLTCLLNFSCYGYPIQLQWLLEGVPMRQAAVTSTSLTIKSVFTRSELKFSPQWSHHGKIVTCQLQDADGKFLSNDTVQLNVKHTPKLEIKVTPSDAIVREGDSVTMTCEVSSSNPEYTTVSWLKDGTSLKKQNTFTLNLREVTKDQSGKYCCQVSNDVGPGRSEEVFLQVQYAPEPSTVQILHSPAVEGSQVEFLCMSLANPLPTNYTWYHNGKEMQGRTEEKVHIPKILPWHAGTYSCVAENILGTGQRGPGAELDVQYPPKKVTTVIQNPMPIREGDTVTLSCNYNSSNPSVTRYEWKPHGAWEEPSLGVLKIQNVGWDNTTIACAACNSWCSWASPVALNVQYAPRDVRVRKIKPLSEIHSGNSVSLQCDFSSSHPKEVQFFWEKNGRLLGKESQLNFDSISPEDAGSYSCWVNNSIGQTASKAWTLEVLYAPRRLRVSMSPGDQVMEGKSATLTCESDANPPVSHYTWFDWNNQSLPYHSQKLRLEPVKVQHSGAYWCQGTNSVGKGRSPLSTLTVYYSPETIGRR

B1: CD22抗体 (scFv单链抗体, 抗CD22) (scFv)
scFv: DIVMTQSPSSLSASVGDRVTITCRASQSINNYLNWYQQKPGKAPKLLISAASSLQSGVPSRFSGSGSGTDFTLTISSLQPEDFATYYCQQSYTTPLTFGGGTKVEIRGSTSGSGKPGSGEGSTKGQVQLQQSGPGLVESSQILSLTCAISGDSVSSNSATWNWIRLSPSRGLEWLGRTYYRSTWYNDYPASVKGRIIIDPDTSKNQFSLLLSSVTPEDTAVYYCARELVPRGATIGFDYWGQGTLVTVSS
OD450: > 1.5 OD450
